{"source": "patent US20160039883A1", "about": "(AstraZeneca / MedImmune, published 2016)", "binders": {"B1": {"name": "palivizumab (antibody, V domains shown)", "VH": "QVTLRESGPALVKPTQTLTLTCTFSGFSLSTSGMSVGWIRQPPGKALEWLADIWWDDKKDYNPSLKSRLTISKDTSKNQVVLKVTNMDPADTATYYCARSMITNWYFDVWGAGTTVTVSS", "VL": "DIQMTQSPSTLSASVGDRVTITCKCQLSVGYMHWYQQKPGKAPKLLIYDTSKLASGVPSRFSGSGSGTEFTLTISSLQPDDFATYYCFQGSGYPFTFGGGTKLEIK"}}, "key": {"[1]": {"biological_target": "VLP099", "assay": "ELISA, VLP-coated wells, 0.5 µg/ml palivizumab, OD relative to sF-coated wells"}, "[2]": {"biological_target": "VLP098", "assay": "ELISA, VLP-coated wells, 0.5 µg/ml palivizumab, OD relative to sF-coated wells"}, "[3]": {"biological_target": "VLP059", "assay": "ELISA, VLP-coated wells, 0.5 µg/ml palivizumab, OD relative to sF-coated wells"}, "[4]": {"biological_target": "VLP097", "assay": "ELISA, VLP-coated wells, 0.5 µg/ml palivizumab, OD relative to sF-coated wells"}, "[5]": {"biological_target": "VLP019", "assay": "ELISA, VLP-coated wells, 0.5 µg/ml palivizumab, OD relative to sF-coated wells"}, "[6]": {"biological_target": "RSV fusion (F) protein on RSV virus (respiratory syncytial virus, UniProt P03420 26-574)", "assay": "cell-based or functional assay"}}, "data": [{"binder": "B1", "values": [{"measurement": "Palivizumab binding in vitro (sF = 100%)", "setting": "[1]", "value": 95, "unit": "%"}, {"measurement": "Palivizumab binding in vitro (sF = 100%)", "setting": "[2]", "value": 47, "unit": "%"}, {"measurement": "Palivizumab binding in vitro (sF = 100%)", "setting": "[3]", "value": 83, "unit": "%"}, {"measurement": "Palivizumab binding in vitro (sF = 100%)", "setting": "[4]", "value": 112, "unit": "%"}, {"measurement": "Palivizumab binding in vitro (sF = 100%)", "setting": "[5]", "value": 100, "unit": "%"}, {"measurement": "PRNT as measured by the IC50 point", "setting": "[6]", "value": "~0.5", "unit": "mg/L"}]}]}
